Data taken from patent US20230125550A1 (ARCELLX, published 2023).
Numbering of substitutions follows the chain as printed.

B1: SEQ ID NO: 409 (designed binder)
chain: MGSWVEFHMRLDAIYERLDALGGSEAELAAFEKEIAAFESELQAYKGKGNPEVEWLRTAAANIRVELQAYRHN
notes: D domain, on phage
B2: SEQ ID NO: 403 (designed binder)
chain: B1 chain with V5S, H8N, D19T, T58H, A59S, N62L, V65L
notes: D domain, on phage
B3: SEQ ID NO: 414 (designed binder)
chain: B1 chain with M9L, E16G, D19M, W55N, T58V, A59W, V65N
notes: D domain, on phage
B4: SEQ ID NO: 413 (designed binder)
chain: B1 chain with V5S, M9V, E16A, W55R, T58E, A59W, V65R
notes: D domain, on phage
B5: SEQ ID NO: 326 (designed binder)
chain: MGSWTEFSIRLEAIYDRLVALGGSEAELAAFEKEIAAFESELQAYKGKGNPEVEVLRTYAAFIRHELQAYRHN
notes: D domain, on phage
B6: SEQ ID NO: 402 (designed binder)
chain: B1 chain with V5S, H8N, D19T, T58H, A59S, N62R, V65L
notes: D domain, on phage
B7: SEQ ID NO: 427 (designed binder)
chain: B5 chain with T5I, S8E, I9V, E12D, D16N, V19A, V55R, T58R, F62N
notes: D domain, on phage
B8: SEQ ID NO: 426 (designed binder)
chain: B5 chain with T5V, S8I, I9Y, E12D, V19E, T58R, F62N, H65N
notes: D domain, on phage
B9: SEQ ID NO: 419 (designed binder)
chain: B1 chain with V5T, H8N, M9L, E16G, D19S, W55F, T58A
notes: D domain, on phage
B10: SEQ ID NO: 415 (designed binder)
chain: B1 chain with H8E, Y15V, E16G, D19Y, W55K, T58R, A59W, V65S
notes: D domain, on phage
B11: SEQ ID NO: 418 (designed binder)
chain: B1 chain with V5T, H8N, M9L, E16D, D19M, T58A, A59S, N62A
notes: D domain, on phage
B12: SEQ ID NO: 420 (designed binder)
chain: B1 chain with H8N, M9W, E16D, D19V, T58V, A59S, N62K, V65G
notes: D domain, on phage
B13: SEQ ID NO: 411 (designed binder)
chain: B1 chain with V5N, H8V, M9I, D19L, W55Y, T58M, V65M
notes: D domain, on phage
B14: SEQ ID NO: 324 (designed binder)
chain: B5 chain with T5Y, S8V, Y15E, V19W, T58W, F62D
notes: D domain, on phage
B15: SEQ ID NO: 416 (designed binder)
chain: B1 chain with H8N, M9I, D19Y, W55K, T58H, A59W, N62S, V65R
notes: D domain, on phage
B16: SEQ ID NO: 412 (designed binder)
chain: MGSWSEFYVRVDAIYARLSALGGSEAELAAFEKEIAAFESELQAYKGKGNPEVEKLRVWAANIRHELQAYRHN
notes: D domain, on phage
B17: SEQ ID NO: 404 (designed binder)
chain: B1 chain with V5I, H8N, D19V, T58K, A59V, V65L
notes: D domain, on phage
B18: SEQ ID NO: 407 (designed binder)
chain: B1 chain with V5T, H8Y, M9V, T58M, A59V, V65T
notes: D domain, on phage
B19: SEQ ID NO: 406 (designed binder)
chain: B1 chain with V5Y, H8A, M9K, D19V, T58S, A59S, V65E
notes: D domain, on phage
B20: SEQ ID NO: 423 (designed binder)
chain: B5 chain with T5V, E12D, D16T, V55M, T58K, Y59G, F62N, H65K
notes: D domain, on phage
B21: SEQ ID NO: 422 (designed binder)
chain: B1 chain with V5T, H8A, M9W, E16D, D19L, T58H, A59V, V65R
notes: D domain, on phage
B22: SEQ ID NO: 408 (designed binder)
chain: B1 chain with H8Y, M9T, E16G, T58Q, A59V, V65M
notes: D domain, on phage
B23: SEQ ID NO: 428 (designed binder)
chain: B16 chain with S5F, V9D, V11L, A16M, S19I, K55V, V58R, W59Y, H65A
notes: D domain, on phage
B24: SEQ ID NO: 431 (designed binder)
chain: B1 chain with V5S, H8Y, M9L, E16D, T58K, A59T, V65E
notes: D domain, on phage
B25: SEQ ID NO: 405 (designed binder)
chain: B1 chain with V5Y, M9H, D19L, T58S, A59S, V65K
notes: D domain, on phage
B26: SEQ ID NO: 410 (designed binder)
chain: B16 chain with S5Y, Y8A, V9I, V11L, A16E, S19H, K55Y, H65T
notes: D domain, on phage
B27: SEQ ID NO: 417 (designed binder)
chain: B1 chain with V5H, H8G, M9V, E16D, D19M, W55F, T58Q, V65S
notes: D domain, on phage
B28: SEQ ID NO: 430 (designed binder)
chain: B16 chain with S5Y, Y8D, V9Y, V11L, A16D, S19A, K55R, V58K, H65E
notes: D domain, on phage
B29: SEQ ID NO: 425 (designed binder)
chain: B5 chain with T5Y, I9M, E12D, V19M, V55Q, T58G, F62N, H65N
notes: D domain, on phage
B30: SEQ ID NO: 424 (designed binder)
chain: B16 chain with S5V, V9I, V11L, A16V, S19M, V58S, W59Y, H65Q
notes: D domain, on phage
B31: SEQ ID NO: 429 (designed binder)
chain: B1 chain with V5F, H8Y, E16D, D19T, W55R, A59F, V65K
notes: D domain, on phage
B32: SEQ ID NO: 421 (designed binder)
chain: B1 chain with V5N, H8A, M9W, E16S, D19A, T58V, V65Y
notes: D domain, on phage
B33: SEQ ID NO: 325 (designed binder)
chain: B5 chain with F62N
notes: D domain, on phage
B34: SEQ ID NO: 323 (designed binder)
chain: MGSWTEFYYRLEAIEDRLWALGGSEAELAAFEKEIAAFESELQAYKGKGNPEVEFLRVEAANIRDMLQAYRHN
notes: D domain, on phage
B35: SEQ ID NO: 335 (designed binder)
chain: B34 chain with T5D, D16M, W19G, F55E, V58H, E59Y, N62Q, D65H
notes: D domain, on phage
B36: SEQ ID NO: 333 (designed binder)
chain: MGSWEEFAQRLYAIEWRLYALGGSEAELAAFEKEIAAFESELQAYKGKGNPEVEVLRYVAAQIRYHLQAYRHN
notes: D domain, on phage
B37: SEQ ID NO: 334 (designed binder)
chain: MGSWDEFAWRLDVIFARLGALGGSEAELAAFEKEIAAFESELQAYKGKGNPEVEELRKNAAQIRDGLQAYRHN
notes: D domain, on phage
B38: SEQ ID NO: 327 (designed binder)
chain: B5 chain with S8V, I9W, Y15W, V19D, T58E, Y59D, F62V, E66F
notes: D domain, on phage
B39: SEQ ID NO: 336 (designed binder)
chain: B5 chain with T5E, S8Y, I9D, D16N, V19G, T58E, F62D, H65E, E66M
notes: D domain, on phage
B40: SEQ ID NO: 383 (designed binder)
chain: MGSWFEFQDRLWAIDNRLWALGGSEAELAAFEKEIAAFESELQAYKGKGNPEVEELRDHAAMIRWELQAYRHN
notes: D domain, on phage
B41: SEQ ID NO: 397 (designed binder)
chain: B40 chain with F5M, Q8E, D9E, N16S, E55W, D58S, H59E, M62W, W65M
notes: D domain, on phage

What follows are binders tested against T1, recombinant human CD123-Fc (human, UniProt P26951 19-305) (assay: phage ELISA, captured CD123-Fc).
T1 construct: not shown: Fc part of CD123-Fc
T1 sequence: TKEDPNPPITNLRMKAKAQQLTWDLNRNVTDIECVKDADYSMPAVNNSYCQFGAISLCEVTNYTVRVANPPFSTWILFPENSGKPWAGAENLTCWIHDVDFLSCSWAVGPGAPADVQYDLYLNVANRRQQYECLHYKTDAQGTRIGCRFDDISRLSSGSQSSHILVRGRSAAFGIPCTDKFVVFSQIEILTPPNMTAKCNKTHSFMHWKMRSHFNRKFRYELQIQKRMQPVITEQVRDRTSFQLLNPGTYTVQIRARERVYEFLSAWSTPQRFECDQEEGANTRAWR
Protocol: Individual colonies containing phagemid from BCMA panning output were picked and phage were rescued in 96-well format using VCSM13 helper phage following standard protocols. To assay target binding by ELISA, 96-well plates were coated with 1.3 microg/ml goat anti-human IgG1-Fc antibody followed by incubation with 5 nM of recombinant human target (BCMA-Fc, CD123-Fc, AFP, or AFP123) or IgG1-Fc. 50 microl of rescued phage diluted 5× in ELISA blocking buffer was then added to each well. Binding was detected using an HRP-conjugated anti-M13 antibody and the ELISA ratio for each sequence is reported as the absorbance at 450 nm for target (i.e., BCMA-Fc, CD123-Fc, AFP, or AFP123) divided by that for IgG1-Fc averaged across all screened wells containing that clone.

Binder | ELISA_avg [ratio A450 target/IgG1-Fc]
B1 | 9.1
B2 | 11.4
B3 | 17.5
B4 | 14.4
B5 | 10.2
B6 | 13.7
B7 | 20.8
B8 | 17
B9 | 19.3
B10 | 25.3
B11 | 14.4
B12 | 9.3
B13 | 16.6
B14 | 6.4
B15 | 13.4
B16 | 14.7
B17 | 11.4
B18 | 16
B19 | 15.3
B20 | 15.1
B21 | 16.1

Binder | ELISA_avg [ratio A450 target/IgG1-Fc]
B22 | 14.4
B23 | 13.6
B24 | 15.7
B25 | 11.9
B26 | 25.5
B27 | 15.6
B28 | 24.9
B29 | 13
B30 | 16.1
B31 | 13.1
B32 | 17.7
B33 | 11.9
B34 | 7.5
B35 | 7.2
B36 | 16.9
B37 | 4.6
B38 | 3.6
B39 | 18.6
B40 | 3.2
B41 | 3.2
